We go through five molecules from US20210130485A1 (DENALI THERAPEUTICS, published 2021).

Substitutions are numbered along the chain they refer to.

Test [1] deals with T1, Human transferrin receptor protein 1 (TFR1) (human, UniProt P02786 89-760, limits assumed).
T1 construct: also called human TfR
Kind of test: soft randomization libraries selected against human TfR.

For test [2], the target named is T1, Human transferrin receptor protein 1 …. Description: binding ELISA, purified Fab-Fc fusion, TfR coated on the plate. How it is done:
Binding ELISAs were conducted with purified Fab-Fc fusion variants with human or cyno TfR coated on the plate, as described above. The variants from the clone CH3C.18 maturation library, clone CH3C.3.2-1, clone CH3C.3.2-5, and clone CH3C.3.2-19, bound human and cyno TfR with approximately equivalent EC₅₀ values, whereas the parent clones CH3C.18 and CH3C.35 had greater than 10-fold better binding to human versus cyno TfR.
ELISA plates were coated with antigen, typically at […] overnight, then blocked with 1% BSA before addition of phage or periplasmic extracts. […] The plates were washed again, and then developed with TMB reagent and quenched with 2N sulfuric acid. Absorbance at 450 nm was quantified using a plate reader (BioTek®) and binding curves were plotted using Prism software where applicable. Absorbance signal for tested clones was compared to negative control (phage or paraplasmic extract lacking Fc). In some assays, soluble transferrin or other competitor was added during the binding step, typically at significant molar excess (greater than 10-fold excess).
On the technique in general: In an ELISA, binding on a coated surface is turned into a signal by an enzyme label.

Test [3] has the same target. Kind of test: selection of combinatorial CH3 libraries for binders to human TfR, affinity maturation.

T1 sequence (P02786 89-760 limits assumed): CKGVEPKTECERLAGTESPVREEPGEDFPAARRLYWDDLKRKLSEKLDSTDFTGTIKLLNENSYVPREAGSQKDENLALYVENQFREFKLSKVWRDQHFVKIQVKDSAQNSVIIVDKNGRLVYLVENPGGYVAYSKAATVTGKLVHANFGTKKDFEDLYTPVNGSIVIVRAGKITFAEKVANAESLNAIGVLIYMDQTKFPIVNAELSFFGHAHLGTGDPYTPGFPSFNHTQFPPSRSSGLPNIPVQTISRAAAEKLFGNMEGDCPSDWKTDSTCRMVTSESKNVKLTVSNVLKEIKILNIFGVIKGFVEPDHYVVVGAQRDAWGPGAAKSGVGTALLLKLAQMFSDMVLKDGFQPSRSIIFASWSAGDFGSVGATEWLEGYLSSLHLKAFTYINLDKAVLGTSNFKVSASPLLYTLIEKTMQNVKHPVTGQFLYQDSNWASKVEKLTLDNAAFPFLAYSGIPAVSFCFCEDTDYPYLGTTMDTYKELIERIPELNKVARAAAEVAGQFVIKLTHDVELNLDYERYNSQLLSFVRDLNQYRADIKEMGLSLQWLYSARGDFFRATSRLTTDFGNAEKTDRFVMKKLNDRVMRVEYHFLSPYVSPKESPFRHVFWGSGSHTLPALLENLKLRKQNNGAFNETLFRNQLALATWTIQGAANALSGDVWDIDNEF

B1: Clone CH3C.21 (designed binder)
chain: APELLGGPSVFLFPPKPKDTLMISRTPEVTCVVVDVSHEDPEVKFNWYVDGVEVHNAKTKPREEQYNSTYRVVSVLTVLHQDWLNGKEYKCKVSNKALPAPIEKTISKAKGQPREPQVYTLPPSRDELTKNQVSLTCLVKGFYPSDIAVEWESLGLVWVGYKTTPPVLDSDGSFFLYSKLTVPKSTWQQGWVFSCSVMHEALHNHYTQKSLSLSPGK
notes: Modified Fc polypeptide
For the molecule B1, the binding result in test [1] was “binds”.

B2: Clone CH3C.34 (designed binder)
chain: B1 chain with G160F, Y161S
notes: Modified Fc polypeptide
Take B2: the binding result in test [1] is listed as “binds”.

B3: Clone CH3C.3.2-1 (designed binder)
chain: B1 chain with L156H, G160N, Y161F
notes: Modified Fc polypeptide; also called CH3C.18.3.2-1
Consider B3, for which the binding result in test [2] was “binds”.

B4: Clone CH3C.25 (designed binder)
chain: B1 chain with L154M, L156H, P183D
notes: Modified Fc polypeptide
Turning to B4, in test [1], the binding result is recorded as “binds”.

B5: Clone CH3C.35.21 (designed binder)
chain: B1 chain with E150W, L154Y, L156T, V157E, V159S, G160S, P183T, S185E, T186E, W191F
notes: Modified Fc polypeptide
Regarding B5, in test [3], the binding result is listed as “binds”.
